Assay results from US5661001.

Columns and labels:
[1] = target: α-thrombin
[2] = target: human thrombin (human) (UniProt P00734)

inhibition of α-thrombin digesting Chromozym TH [1]: 82% | titration against 2.0 nM thrombin in presence of 200 µM D-Val-Leu-Arg-p-nitroanilide: fraction of active molecules [2]: 0.97
Substance: [Cys^33 ]HV1--[Cys^33 ]HV1 dimer
